Measured values reported in US12297265B2, “Antibody and use thereof” (SICHUAN KELUN-BIOTECH BIOPHARMACEUTICAL CO., LTD., priority 2018, dated 2025).

Legend:
[1] = Pharmacokinetics in SCID mice; assay type: in vivo; settings: 10 mg/kg intravenously
Method: Blood samples were taken 8 h, 1 d, 3 d, 8 d and 15 d after injection and serum antibody concentrations were determined by Cellular ELISA as described in Example 8. […] The data of mouse serum was subjected to curve fitting.

[2] = tested on: KATOIII-Claudin 18.2 cells; assay: NK cell mediated ADCC on KATOIII-Claudin 18.2 cells (LDH); assay type: cell-based; settings: KATOIII-Claudin 18.2 target cells, NK92MI-CD16a effector cells
Method: (§1) The steps were as follows: HEK293T-Claudin 18.2, L929-Claudin 18.2, KATOIII-Claudin 18.2 and NUGC-4 cells were harvested and centrifuged followed by adjustment of cell density. 1×10^4/well of cells were plated on a plate and incubated overnight. The medium was removed on the next day. NK92MI-CD16a cells (Huabo Biopharm) were centrifuged, resuspended in MEMA medium and adjusted to 1×10^6/mL, then 50 μL/well cells were added to the corresponding wells. […] For HEK293T-Claudin18.2, L929-Claudin18.2 and KATOIII-Claudin18.2 cells, ten antibody concentrations were tested, starting from 40 μg/mL with 5-fold dilution. For NUGC-4 cells, eleven antibody concentrations were tested, starting from 2 mg/mL with 5-fold dilution. 50 μL/well of the diluted antibodies were added to the corresponding wells and the reactions were left to stand in incubator at 37° C., 5% CO2 and incubated for 5.5h. Lysis buffer was then added to the positive control well and incubated for another 0.5h. 50 μL/well of Lactate Dehydrogenase (LDH) detection agent (DOJINDO LABORATORISE, CK12) were added to the wells and the absorbance at 490 nm were taken every 10 min on a plate reader (MD, SpectraMax M2). The results were imported into Graphpad Prism for curve fitting.

[3] = tested on: HEK293T-Claudin 18.2 cells; assay: NK cell mediated ADCC on HEK293T-Claudin 18.2 cells (LDH); assay type: cell-based; settings: HEK293T-Claudin 18.2 target cells
Method: as §1
The cell used was HEK293T-Claudin 18.2. The ADCC activity of antibody 2C6.9-hz21 on HEK293T-Claudin 18.2 is stronger than that of IMAB362.

[4] = tested on: NUGC-4 cells; assay: NK cell mediated ADCC on NUGC-4 cells (LDH); assay type: cell-based, human; settings: NUGC-4 target cells, NK92MI-CD16a effector cells
Method: as §1

[5] = tested on: L929-Claudin 18.2 cells; assay: NK cell mediated ADCC on L929-Claudin 18.2 cells (LDH); assay type: cell-based; settings: L929-Claudin 18.2 target cells, NK92MI-CD16a effector cells
Method: as §1

[6] = tested on: HEK293T-Claudin 18.2 cells; assay: CDC killing of HEK293T-Claudin 18.2 cells (guinea pig serum, CCK8); assay type: cell-based; settings: 20% guinea pig serum, 3 h
Method: The procedure is described as follows: HEK293T-Claudin 18.2 cells were harvested and centrifuged followed by adjustment of cell density. 5×10^4/well of cells were plated on a plate and incubated overnight. […] Starting from 20 μg/mL, 10 concentrations were prepared with two-fold dilution. The original cell culture media for HEK293T-Claudin 18.2 cells was removed, and the antibody dilutions were added to the corresponding wells, 100 μL/well. 10 μl/well lysis buffer was provided as the positive control. The reactions were left to stand in incubator at 37° C., 5% CO2 and incubated for 3 h. Then, CCK8 (Rhinogen, QDY-003-D) was added at 20 μl/well and allowed to react for 2h. Absorbance at 450 nm were taken on a plate reader (MD, SpectraMax M2). The results were subjected to curve fitting by Graphpad Prism.

[7] = target: T1, human Claudin18.2 (Homo sapiens, UniProt P56856); assay: Cellular ELISA on L929-Claudin 18.2 cells; assay type: binding; parameters: expressed in transfected cells; host or cells: L929, infected with pLVX-IRES-puro lentivirus, puromycin-selected monoclonal line; cells were formaldehyde-fixed for the cellular ELISA
Method: Human Claudin18.2 is a four transmembrane protein and has a complex structure. Cellular ELISA was thus carried out to maintain the structure of Claudin18.2. The stable cell line L929-Claudin 18.2 constructed in Example 1 were used for detection. Specifically, L929-Claudin 18.2 adherent cells were detached by 2 mM EDTA treatment. The cells were resuspended and adjusted to 2×10^5/mL and 100 μL of the resuspension was plated into 96 well plate and incubated overnight at 37° C. The next day, the media was removed, and the plate was washed with PBS once. 100 μL/well 4% formaldehyde was added to the plate. After 30 min of incubation at room temperature, formaldehyde was removed, followed by washing twice with PBS. Blocking buffer (PBS containing 2% BSA) was then added to the plate at 100 μL/well, and incubated at 37° C. for 2 h. After removal of blocking buffer, 100 μL/well of serially diluted antibodies (starting from 1 μM, with 4-fold dilution, for a total of 11 concentrations) were added to the corresponding wells, which were incubated at 37° C. for 2h afterwards. The plate was washed with 250 μL PBST for 5 times, and was allowed to stand for 2 min each time. 100 μL/well of horseradish peroxidase labeled anti-Human IgG secondary antibody (HRP-anti-Human IgG, Jackson ImmunoResearch, 109-035-003) diluted 1:10000 in PBS (containing 2% BSA) was added to the plate. The plate was incubated at 37° C. for 1 h and washed with 250 μL PB ST 6 times, wherein the plate was allowed to stand for 2 min each time. 100 μL/well of TMB solution (Thermo, 34029) was added. The reactions were incubated at 37° C. for 20 min and stopped with 50 μL 2 mol/L H2504. The absorbance at 450 nm was read on a plate reader (MD, SpectraMax M2) and the results were subjected to curve fitting by Graphpad Prism.

[8] = target: T1, human Claudin18.2; assay: Cellular ELISA on NUGC-4 cells; assay type: binding; parameters: cell lines endogenously expressing human Claudin18.2; host or cells: NUGC-4 human gastric cancer cell line
Method: Human Claudin18.2 is a four transmembrane protein and has a complex structure. Cellular ELISA was thus carried out to maintain the structure of Claudin18.2. The stable cell line L929-Claudin 18.2 constructed in Example 1 were used for detection. Specifically, L929-Claudin 18.2 adherent cells were detached by 2 mM EDTA treatment. The cells were resuspended and adjusted to 2×10^5/mL and 100 μL of the resuspension was plated into 96 well plate and incubated overnight at 37° C. The next day, the media was removed, and the plate was washed with PBS once. 100 μL/well 4% formaldehyde was added to the plate. After 30 min of incubation at room temperature, formaldehyde was removed, followed by washing twice with PBS. […] The absorbance at 450 nm was read on a plate reader (MD, SpectraMax M2) and the results were subjected to curve fitting by Graphpad Prism.
To determine binding affinity of the candidate antibodies to cell lines endogenously expressing human Claudin18.2, FACS analysis was performed to detect human Claudin18.2 expression level on NUGC-4 cells (purchased from Japan JCRB cell bank, catalog number: JCRB0834) which endogenously expresses human Claudin18.2. […] The binding affinity between candidate antibodies and NUGC-4 cells was then determined by Cellular ELISA following the same protocol as above.

Substance: IMAB362: Zolbetuximab (IMAB362) developed by Astellas, human-mouse chimeric IgG1 antibody targeting Claudin 18.2; control antibody, sequences from CN 101312989 B [reference compound]
- AUC [1]: 7391.22 µg·h/mL
- Max. Cytotoxicity [2]: 49%
- Max. Cytotoxicity ([3]; NK92MI-CD16a effector cells, Table 13): 55%
- Max Cytotoxicity ([3]; Table 14 experiment): 20%
- Max. Cytotoxicity [4]: 35%
- Max. Cytotoxicity [5]: 52%
- maximal killing rate (CDC) [6]: about 70%
- Max Signal Value (OD450) ([7]; Table 8 experiment): 0.82 OD450
- Max Signal Value (OD450) ([7]; Table 9 experiment): 0.53 OD450
- OD450 (Max signal value) [8]: Not detected
